Assay results taken from patent US20240409638A1 (AVACTA LIFE SCIENCES, published 2024).

Tests used:
[1] = target: T1, murine serum albumin (MSA) (murine, UniProt P07724 25-608); test: SPR, Biacore, MSA amine-coupled on CM5; E. coli-produced format
T1 construct: Bought reagent

[2] = target: T2, human PD-L1-Fc (R&D Systems) (human, UniProt Q9NZQ7 19-239); test: human PD-L1-Fc binding ELISA: huPD-L1-Fc coated, anti-cystatin A detection, no HSA in the assay buffer
T2 construct: Bought reagent; also called huPD-L1-Fc; huPD-L1; not shown: Fc part of the bought fusion
T2 sequence (Q9NZQ7 19-239 limits assumed): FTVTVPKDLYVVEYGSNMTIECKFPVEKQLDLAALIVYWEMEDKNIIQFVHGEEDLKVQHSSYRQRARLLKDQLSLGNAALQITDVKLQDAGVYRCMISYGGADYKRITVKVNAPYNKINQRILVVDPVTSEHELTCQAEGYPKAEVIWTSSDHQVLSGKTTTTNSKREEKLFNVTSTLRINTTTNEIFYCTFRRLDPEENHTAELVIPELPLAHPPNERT
Procedure: (§1) Plates were washed and AFFIMER® polypeptides were detected using streptavidin-HRP for 30 min. After the last washing step, the TMB substrate was added for the development of the experiment and plates were read at 450 nm. The EC₅₀ was then calculated using the interpolated non-linear four-parameters standard curve.

[3] = target: T3, PD-L1 on cells (NCI-H441 cells; aAPC PD-L1/CHO-K1 cells, Promega) (human, UniProt Q9NZQ7 19-290); test: cell-based or functional assay
T3 sequence (Q9NZQ7 19-290): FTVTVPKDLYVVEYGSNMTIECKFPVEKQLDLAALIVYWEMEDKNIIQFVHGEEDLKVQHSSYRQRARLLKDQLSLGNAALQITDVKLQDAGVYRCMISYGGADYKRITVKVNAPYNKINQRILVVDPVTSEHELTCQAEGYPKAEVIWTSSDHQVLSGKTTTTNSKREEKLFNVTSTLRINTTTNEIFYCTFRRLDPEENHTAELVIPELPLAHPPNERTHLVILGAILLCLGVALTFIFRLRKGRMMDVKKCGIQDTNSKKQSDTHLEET

[4] = target: T3, PD-L1 on cells (NCI-H441 cells; aAPC …); test: flow cytometry, % positive cells, NCI-H441 cells (endogenous PD-L1)
Procedure: Lung cancer cell line (NCI-H441 (ATCC), CHO-K1 recombinant cell line overexpressing PD-L1 aAPC/CHO-K1 (Promega J1252)) and a negative cell line (CHO-K1, ATCC) were used to assess AFFIMER® agent binding capacity to PD-L1 by flow cytometry.
Briefly, 50 000 cells were added to each well of a 96-well microplate. After this step and each subsequent step, cells were washed twice with PBS+2 mM EDTA using 350g centrifugation for 3 minutes at 4° C. All steps were performed at 4° C. using assay buffer comprising 5% FBS, 2 mM EDTA and 0.05% sodium azide in PBS unless otherwise stated. Independent AFFIMER® agent dilutions were prepared in duplicate and added to the plates. […] Fixation was performed for 10 minutes at 4° C. with Fixation Buffer (Bio-techne FC004). Cells were resuspended in 100 ul assay buffer prior the acquisition of the data. 5000 events were collected by Flow cytometry (Millipore Guava 12HT). The results were gated on live cells and singlets (SSC-H vs SSC-A). The percentage of cells expressing PD-L1 bound by the AFFIMER® agent (positive cells) was determined by using as negative control (background) where the wells were stained with the AF488 conjugated secondary antibody only without AFFIMER® agent. The average of the duplicate wells was used to calculate EC₅₀ using a four-parameter non-linear regression curve fit using Graphpad Prism software. […]

[5] = target: T2, human PD-L1-Fc (R&D Systems); test: SPR (Biacore 8K): human PD-L1-Fc amine-coupled on a CM5 chip, AFFIMER as analyte, 1:1 Langmuir fit
[6] = target: T2, human PD-L1-Fc (R&D Systems); test: SPR (Biacore) kinetics: human PD-L1-Fc immobilised on a CM5 chip, AFFIMER as analyte (column KD (pM), the same fit as the KD (M) column)
[7] = target: T2, human PD-L1-Fc (R&D Systems); test: PD-L1/PD-1 competition ELISA (binding inhibition %): human PD-1-Fc coated, AFFIMER preincubated with huPD-L1-Fc at its EC80, bound PD-L1 detected; blocked ligand: human PD-1-Fc. The table column is headed 'EC50 (nM)'; the text calls the values IC50
Procedure: Plates were washed two times with washing buffer (PBS, Tween 20 0.1%) with a plate washer and saturated with Casein 5% (Sigma) in PBS for 90 minutes at room temperature (25±1° C.). […] Plates were washed 3 times as described previously. […] Plates were washed 3 times as described previously and Streptavidin-HRP was added, and the plates were incubated for 30 minutes at room temperature (25±1° C.). Plates were washed a last time and the substrate (TMB; Pierce Thermo-Scientific) was added to the plate. After 10 minutes, the reaction was stopped using an acidic solution and the plates were read at absorbance 450-630 nm. The IC₅₀ was then calculated using the interpolated non-linear four-parameters standard curve.

[8] = target: T1, murine serum albumin (MSA); test: SPR (Biacore): immobilized ligand MSA (Sigma # A3559), AFFIMER as analyte, pH 7.0 by the legend
[9] = target: T4, human serum albumin (HSA) (human, UniProt P02768 25-609); test: SPR (Biacore 8K): HSA amine-coupled on a CM5 chip, AFFIMER as analyte, pH 7.4, 1:1 Langmuir fit
T4 construct: The assays used bought HSA (Sigma #A37812 in the SPR work); also called HuSA
T4 sequence (P02768 25-609): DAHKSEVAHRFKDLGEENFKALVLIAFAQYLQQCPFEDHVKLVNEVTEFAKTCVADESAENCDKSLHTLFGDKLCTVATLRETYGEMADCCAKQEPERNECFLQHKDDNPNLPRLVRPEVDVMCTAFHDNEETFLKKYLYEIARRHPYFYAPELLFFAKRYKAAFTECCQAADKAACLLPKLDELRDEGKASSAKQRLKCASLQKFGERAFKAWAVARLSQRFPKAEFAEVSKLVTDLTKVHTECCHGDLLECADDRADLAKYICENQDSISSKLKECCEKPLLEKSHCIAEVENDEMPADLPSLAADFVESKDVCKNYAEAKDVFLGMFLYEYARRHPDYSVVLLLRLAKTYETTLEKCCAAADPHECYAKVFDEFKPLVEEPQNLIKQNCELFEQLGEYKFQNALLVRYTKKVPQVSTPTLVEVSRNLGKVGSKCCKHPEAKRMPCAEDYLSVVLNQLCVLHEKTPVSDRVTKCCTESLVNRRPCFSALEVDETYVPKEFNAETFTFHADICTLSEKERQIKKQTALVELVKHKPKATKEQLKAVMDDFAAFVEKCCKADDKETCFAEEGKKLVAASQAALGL
Procedure: For the HSA binding kinetic analysis, HSA (Sigma #A37812) was immobilized on a CM5 chip surface using amine coupling in 10 mM sodium acetate (pH 5.0) (Cytvia). […] The chip surface was regenerated with 3 mM NaOH for 20 seconds at a flow rate of 20 μl/min. The kinetic data was blank subtracted and fit to a 1:1 Langmuir binding model (BIAcore evaluation software; Cytiva).

[10] = target: T2, human PD-L1-Fc (R&D Systems); test: SPR (Biacore 8K): human PD-L1-Fc amine-coupled on a CM5 chip, AFFIMER as analyte
[11] = target: T2, human PD-L1-Fc (R&D Systems); test: human PD-L1-Fc binding ELISA: huPD-L1-Fc coated, anti-cystatin A detection, with 10 µM HSA in the assay buffer
Procedure: as §1

[12] = target: T4, human serum albumin (HSA); test: HSA binding ELISA: HSA coated, bound AFFIMER detected with biotinylated anti-cystatin A antibody and streptavidin-HRP
Procedure: as §1

Kd [1]: 269 nM | EC50 [2]: 0.036 nM | half-maximal concentration of PD-1/PD-L1 blockade (% of inhibition, NFAT-luciferase reporter cells; IC50) [3]: 33.4 nM | EC50 [4]: 0.41 nM | Kd [5]: 0.0391 nM | Kd [6]: 0.0796 nM | IC50 [7]: 0.84 nM | koff [8]: 0.0474 s⁻¹ | kon [8]: 176000 M⁻¹ s⁻¹ | Kd [9]: 6.13 nM | koff [9]: 0.00589 s⁻¹ | kon [9]: 961000 M⁻¹ s⁻¹ | Kd [10]: 0.06 nM | koff [10]: 7.12e-05 s⁻¹ | kon [10]: 1.19e+06 M⁻¹ s⁻¹ | EC50 [11]: 0.04 nM | EC50 [12]: 0.03 nM
B1: Clone 80 XT35 (anti-PD-L1 type III AFFIMER® XT in-line fusion dimer XT) (designed binder)
chain: MIPGGLSEAKPATPEIQEIVDKVKPQLEEKTGETYGKLEAVQYKTQVVRRKHFPQWPGTNYYIKVRAGDNKYMHLKVFKSLDLQPREVFQEDLVLTGYQVDKNKDDELTGFAEAAAKEAAAKEAAAKEAAAKEAAAKEAAAKMIPGGLSEAKPATPEIQEIVDKVKPQLEEKTGETYGKLEAVQYKTQVVRRKHFPQWPGTNYYIKVRAGDNKYMHLKVFKSLDLQPREVFQEDLVLTGYQVDKNKDDELTGFAEAAAKEAAAKEAAAKEAAAKEAAAKEAAAKMIPRGLSEAKPATPEIQEIVDKVKPQLEEKTNETYGKLEAVQYKTQVLANFFQRRWPGSTNYYIKVRAGDNKYMHLKVFNGPWKFRNTDRGADRVLTGYQVDKNKDDELTGFHHHHHH
notes: Made in E. coli; Two Clone 80 units are fused to one HSA-41; also called XT35_1; ILF trimer format
